From US20250066499A1 (SUNSHINE GUOJIAN PHARMACEUTICAL SHANGHAI, published 2025)

Assays:
CD73-ND-P139A = molecular target: T1, CD73-ND-P139A (human, UniProt P21589 27-317); assay: ELISA; decline multiple of Top against CD73-ND
T1 construct: Alanine mutant of CD73-ND
T1 sequence: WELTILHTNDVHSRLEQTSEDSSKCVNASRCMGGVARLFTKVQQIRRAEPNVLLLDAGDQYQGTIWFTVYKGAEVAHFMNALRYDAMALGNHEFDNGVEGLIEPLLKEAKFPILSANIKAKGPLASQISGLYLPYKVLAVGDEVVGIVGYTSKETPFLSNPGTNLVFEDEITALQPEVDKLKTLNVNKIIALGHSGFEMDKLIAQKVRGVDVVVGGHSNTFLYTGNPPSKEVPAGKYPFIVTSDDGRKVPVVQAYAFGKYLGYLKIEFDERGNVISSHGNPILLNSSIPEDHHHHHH
Experimental: (§1) The ELISA plates were coated with SA protein diluted to 1.5 μg/mL in coating buffer (50 mM carbonate coating buffer, pH 9.6) and incubated overnight at 4° C. The supernatant was discarded, and the plates were washed three times with PBST. Then, 5% skimmed milk powder prepared with PBS was added for blocking and the plates were incubated for 2 h at 37° C. After washing the plates once with PBST, CD73-biotin protein (prepared by biotinylating CD73-His protein according to the EZ-Link NHS-Biotin Reagent instructions) was diluted to 0.5 μg/mL and added at 100 μL/well for incubation at room temperature for 1 h. The plates were washed three times with PBST, and the prepared murine-derived monoclonal antibodies against human CD73 were serially diluted with 1% BSA buffer prepared with PBST and added to the ELISA plates at 100 μl/well. The plates were incubated at 37° C. for 1 h. After washing the plates three times with PBST, HRP-labeled goat anti-mouse IgG secondary antibody was added and the plates were incubated for 30 min at 37° C. After washing the plates three times with PBST, the residual droplets were patted dry on absorbent paper as much as possible. Then, 100 μl of TMB color developing solution was added to each well, and the plates were incubated in the dark at room temperature for 5 min for color development. Subsequently, 50 μl of 2M H₂SO₄ stop solution was added to each well to terminate the substrate reaction. The OD values were read at 450 nm using a multimode microplate reader to analyze the binding ability of the tested antibodies to the target antigen human CD73-His.
(§2) Referring to the experimental method in Example 3, the affinity of 48A11-HuV33 for various mutant proteins of CD73-ND was determined. The SA protein was diluted to 1 μg/mL for coating the ELISA plates, and the biotinylated CD73 protein (CD73-biotin) was used at a concentration of 0.1 μg/mL.

CD73-ND-V140A = molecular target: T2, CD73-ND-V140A (human, UniProt P21589 27-317); assay: ELISA; decline multiple of Top against CD73-ND
T2 construct: Alanine mutant of CD73-ND
T2 sequence: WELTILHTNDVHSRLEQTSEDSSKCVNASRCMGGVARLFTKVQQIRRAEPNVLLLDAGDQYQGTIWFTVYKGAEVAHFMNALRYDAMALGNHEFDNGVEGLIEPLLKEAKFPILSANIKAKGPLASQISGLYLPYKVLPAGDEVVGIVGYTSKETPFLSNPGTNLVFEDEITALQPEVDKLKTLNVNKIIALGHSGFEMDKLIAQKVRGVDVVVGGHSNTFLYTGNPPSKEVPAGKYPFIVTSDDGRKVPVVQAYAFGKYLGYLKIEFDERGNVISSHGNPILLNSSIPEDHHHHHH
Experimental: as §1, §2

CD73-ND-L184A = molecular target: T3, CD73-ND-L184A (human, UniProt P21589 27-317); assay: ELISA; decline multiple of Top against CD73-ND
T3 construct: Alanine mutant of CD73-ND
T3 sequence: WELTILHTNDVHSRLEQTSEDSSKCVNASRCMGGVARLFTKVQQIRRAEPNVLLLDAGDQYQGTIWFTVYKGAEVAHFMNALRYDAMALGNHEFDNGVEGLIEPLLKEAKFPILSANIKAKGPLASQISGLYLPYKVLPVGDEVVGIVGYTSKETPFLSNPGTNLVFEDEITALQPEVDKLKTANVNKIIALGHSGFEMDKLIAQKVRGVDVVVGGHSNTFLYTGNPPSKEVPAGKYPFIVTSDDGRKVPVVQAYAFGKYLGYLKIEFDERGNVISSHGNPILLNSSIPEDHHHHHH
Experimental: as §1, §2

CD73-CD-his = molecular target: T4, CD73-CD-his (human, UniProt P21589 337-549); assay: ELISA as in Example 3, antigen CD73-CD-his, antibody titrated, absorbance 450 nm
T4 construct: it fits residue S549 of P21589 (27+522)
T4 sequence: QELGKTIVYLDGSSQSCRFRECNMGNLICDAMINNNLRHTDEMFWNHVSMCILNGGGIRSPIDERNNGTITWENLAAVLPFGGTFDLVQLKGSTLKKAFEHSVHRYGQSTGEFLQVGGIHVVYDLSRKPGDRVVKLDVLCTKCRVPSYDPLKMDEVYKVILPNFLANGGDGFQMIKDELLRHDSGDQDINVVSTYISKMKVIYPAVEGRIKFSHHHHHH

CD73-ND-N187A = molecular target: T5, CD73-ND-N187A (human, UniProt P21589 27-317); assay: ELISA, biotinylated antigen on streptavidin plate
T5 construct: Alanine mutant of CD73-ND
T5 sequence: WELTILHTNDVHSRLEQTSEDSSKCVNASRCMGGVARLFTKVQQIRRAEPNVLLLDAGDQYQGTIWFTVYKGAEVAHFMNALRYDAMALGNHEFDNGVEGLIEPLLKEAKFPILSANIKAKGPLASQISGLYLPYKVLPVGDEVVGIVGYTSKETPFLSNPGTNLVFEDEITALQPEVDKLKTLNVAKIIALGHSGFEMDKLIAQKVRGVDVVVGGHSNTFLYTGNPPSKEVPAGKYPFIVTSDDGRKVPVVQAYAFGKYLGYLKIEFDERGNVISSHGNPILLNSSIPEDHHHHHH
Experimental: as §1, §2

CD73-ND-his = molecular target: T6, CD73-ND-his (human, UniProt P21589 27-317); assay: ELISA, biotinylated antigen on streptavidin plate
T6 construct: Biotinylated and captured on streptavidin in the ELISA
T6 sequence: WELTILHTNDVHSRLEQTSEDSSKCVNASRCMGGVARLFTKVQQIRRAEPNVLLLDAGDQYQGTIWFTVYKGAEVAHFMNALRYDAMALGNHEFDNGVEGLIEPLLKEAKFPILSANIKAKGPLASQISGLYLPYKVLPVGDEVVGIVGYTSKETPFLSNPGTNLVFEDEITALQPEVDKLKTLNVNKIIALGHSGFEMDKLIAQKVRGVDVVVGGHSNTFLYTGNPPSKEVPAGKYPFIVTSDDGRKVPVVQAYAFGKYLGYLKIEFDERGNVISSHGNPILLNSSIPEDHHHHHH
Experimental: as §1, §2

B1: 48A11-HuV33 (antibody, human IgG4, V domains shown)
VH: QVQLVQSGAEVKKPGASVKVSCKASGYTFTSYWMHWVRQAPGQGLEWIGEINPSIGRTNYNEKFKSRVTLTRDTSTSTAYMELSSLRSEDTAVYYCARRVYGTMDYWGQGTLVTVSS
VL: DIQMTQSPSSLSASVGDRVTITCKASQDINSYLSWFQQKPGKSPKLLIYRANIWVDGVPSRFSGSGSGQDYTFTISSLQPEDIATYYCLQYDELYTFGQGTKVEIK
notes: Humanized
Question: What does the source list for B1?
Answer: Ratio(Top) (CD73-ND-P139A): 2.3 fold; Ratio(Top) (CD73-ND-V140A): 1 fold; Ratio(Top) (CD73-ND-L184A): 1.2 fold; binding result (CD73-CD-his): no binding (tested: 10 nM); EC50 (CD73-ND-N187A): 0.105 nM; EC50 (CD73-ND-his): 0.091 nM
